# Assays:
# [1] = molecular target: African green monkey C5 (African green monkey); assay: cell-based or functional assay
# [2] = molecular target: human C5 R885H-mmh (human, UniProt P01031 19-1676); assay: cell-based or functional assay
# [3] = molecular target: human C5 R885C-mmh (human, UniProt P01031 19-1676); assay: cell-based or functional assay
# [4] = molecular target: T1, human C5 (human, UniProt P01031 19-1676); assay: cell-based or functional assay
# [5] = molecular target: T1, human C5; assay: SPR (Biacore), mAb captured, dissociation of human C5 at pH7.4 vs pH6.0, 37°C
# Procedure, shortened: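 Anti-C5 mAbs (human IgG4 Fc) captured on an amine-coupled mouse anti-human Fc surface; recombinant C5 dissociation followed by Biacore T200 in PBS-T (0.01M phosphate, 0.15M NaCl, 0.05% Tween-20) at pH7.4 or pH6.0. Dissociative half-life (t½) calculated from kd.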
# [6] = molecular target: T1, human C5; assay: cell-based or functional assay; remark: listed apart in the source
Binder,"IC50, inhibition of CDC of Daudi cells, 1.66% African Green monkey serum, 10 nM anti-CD20 antibody [1] [nM]","IC50, inhibition of CDC of Daudi cells, C5 depleted human serum and 6.6 nM C5 Variant R885H, 7 nM anti-CD20 antibody [2] [nM]","IC50, inhibition of CDC of Daudi cells, C5 depleted human serum and 6.6 nM C5 Variant R885C, 30 nM anti-CD20 antibody [3] [nM]","IC50, inhibition of CDC of Daudi cells, 1.66% human serum, 2 nM anti-CD20 antibody [4] [nM]",t½ Ratio pH7.4/pH6.0 [5],"Human AP % Max Inhibition, hemolysis assay, 5% NHS [6] [%]","Human AP IC50, hemolysis assay, 5% NHS [6] [nM]","Human CP % Max Inhibition, hemolysis assay, 5% NHS [6] [%]","Human CP IC50, hemolysis assay, 5% NHS [6] [nM]","Max % Inhibition of CDC of Daudi cells, 1.66% African Green monkey serum, 10 nM anti-CD20 antibody [1] [%]"
"H4H12166P2 (antibody, human IgG4, V domains shown, histidine-mutated CDR variant of H4H12166P; human IgG4 (S108P)) VH: QVQLQESGPGLVKPSETLSLTCTVSGDSVSSSYWTWIRQPPGKGLEWIGYIYYSGSSNYNPSLKSRATISVDTSKNQFSLKLSSVTAADTAVYYCAREGNVDTTMIFDYWGQGTLVTVSS VL: AIQMTQSPSSLSASVGDRVTITCRASQGIRNDLGWYQQKPGKAPKLLIYAASSLQSGVPSRFAGRGSGTDFTLTISSLQPEDFATYYCHQDFNYPWTFGQGTKVEIK",9.7,1.7,1.2,3.7,7.3,81.3,47.8,98.2,15.9,
"H4H12166P4 (antibody, human IgG4, V domains shown, histidine-mutated CDR variant of H4H12166P; human IgG4 (S108P)) VH: QVQLQESGPGLVKPSETLSLTCTVSGDSVSSSYWTWIRQPPGKGLEWIGYIYYSGSSNYNPSLKSRATISVDTSKNQFSLKLSSVTAADTAVYYCAREGNVDTTMIFDYWGQGTLVTVSS VL: AIQMTQSPSSLSASVGDRVTITCRASQGIRNDLGWYQQKPGKAPKLLIYAASSLQSGVPSRFAGRGSGTDFTLTISSLQPEDFATYYCLQDFNYPWHFGQGTKVEIK",7.9,1.5,0.96,3.5,7.6,77,31.7,98.6,13.2,
"H4H12166P5 (antibody, human IgG4, V domains shown, histidine-mutated CDR variant of H4H12166P; human IgG4 (S108P)) VH: QVQLQESGPGLVKPSETLSLTCTVSGDSVSSSYWTWIRQPPGKGLEWIGYIYYSGSSNYNPSLKSRATISVDTSKNQFSLKLSSVTAADTAVYYCAREGNVDTTMIHDYWGQGTLVTVSS VL: AIQMTQSPSSLSASVGDRVTITCRASQGIRNDLGWYQQKPGKAPKLLIYAASSLQSGVPSRFAGRGSGTDFTLTISSLQPEDFATYYCLQDFNYPWTFGQGTKVEIK",> 30,2.1,1.4,4.9,7.6,77.7,65.5,97.1,14.9,75
"H4H12166P6 (antibody, human IgG4, V domains shown, histidine-mutated CDR variant of H4H12166P; human IgG4 (S108P)) VH: QVQLQESGPGLVKPSETLSLTCTVSGDSVSSSYWTWIRQPPGKGLEWIGYIYYSGSSNYNPSLKSRATISVDTSKNQFSLKLSSVTAADTAVYYCAREGNVDHTMIFDYWGQGTLVTVSS VL: AIQMTQSPSSLSASVGDRVTITCRASQGIRNDLGWYQQKPGKAPKLLIYAASSLQSGVPSRFAGRGSGTDFTLTISSLQPEDFATYYCLQDFNYPWTFGQGTKVEIK",9.9,1.3,0.79,3,8.2,82.4,28.4,98.1,10.3,

# Reference: patent publication US20170355757A1 (Regeneron, published 2017)
